Holding throughout (experiment): Flag co-IP, 293 cells, MudPIT MS
One assay addresses T1, VCIP135 (human) (UniProt Q96JH7).
T1 sequence (looked up): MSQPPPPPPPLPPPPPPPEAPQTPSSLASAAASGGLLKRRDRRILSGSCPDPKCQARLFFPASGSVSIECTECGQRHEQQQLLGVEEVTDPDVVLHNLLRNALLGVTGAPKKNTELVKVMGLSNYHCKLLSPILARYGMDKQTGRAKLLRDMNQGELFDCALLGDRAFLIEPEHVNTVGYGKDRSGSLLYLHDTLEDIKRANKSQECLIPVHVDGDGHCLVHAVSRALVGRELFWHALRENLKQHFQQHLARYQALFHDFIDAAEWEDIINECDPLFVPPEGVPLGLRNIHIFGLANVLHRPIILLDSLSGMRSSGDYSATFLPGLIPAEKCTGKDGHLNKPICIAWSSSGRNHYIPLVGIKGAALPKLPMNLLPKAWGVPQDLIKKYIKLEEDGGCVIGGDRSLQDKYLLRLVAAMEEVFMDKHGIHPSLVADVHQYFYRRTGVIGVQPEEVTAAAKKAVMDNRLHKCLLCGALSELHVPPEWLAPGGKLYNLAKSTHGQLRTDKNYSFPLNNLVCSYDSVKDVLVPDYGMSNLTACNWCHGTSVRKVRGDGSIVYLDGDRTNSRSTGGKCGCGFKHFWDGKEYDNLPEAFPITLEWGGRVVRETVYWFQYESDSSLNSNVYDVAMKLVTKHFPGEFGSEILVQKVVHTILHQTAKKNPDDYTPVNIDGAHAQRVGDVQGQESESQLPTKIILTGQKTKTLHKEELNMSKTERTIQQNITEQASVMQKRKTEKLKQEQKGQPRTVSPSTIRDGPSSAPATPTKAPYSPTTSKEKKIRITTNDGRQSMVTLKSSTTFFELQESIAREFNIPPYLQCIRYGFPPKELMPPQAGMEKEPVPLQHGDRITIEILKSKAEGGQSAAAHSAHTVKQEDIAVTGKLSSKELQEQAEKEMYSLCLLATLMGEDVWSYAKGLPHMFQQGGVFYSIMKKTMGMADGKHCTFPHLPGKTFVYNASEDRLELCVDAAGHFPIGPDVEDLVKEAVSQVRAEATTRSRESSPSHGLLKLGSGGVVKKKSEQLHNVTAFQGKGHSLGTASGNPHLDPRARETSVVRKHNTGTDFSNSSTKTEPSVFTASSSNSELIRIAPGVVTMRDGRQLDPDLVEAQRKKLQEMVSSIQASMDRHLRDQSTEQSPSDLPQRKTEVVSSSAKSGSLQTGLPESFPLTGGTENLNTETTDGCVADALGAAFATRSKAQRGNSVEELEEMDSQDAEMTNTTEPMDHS

For a further assay, the target named is T2, endogenous UFD1 (human) (UniProt Q92890).
T2 sequence (looked up): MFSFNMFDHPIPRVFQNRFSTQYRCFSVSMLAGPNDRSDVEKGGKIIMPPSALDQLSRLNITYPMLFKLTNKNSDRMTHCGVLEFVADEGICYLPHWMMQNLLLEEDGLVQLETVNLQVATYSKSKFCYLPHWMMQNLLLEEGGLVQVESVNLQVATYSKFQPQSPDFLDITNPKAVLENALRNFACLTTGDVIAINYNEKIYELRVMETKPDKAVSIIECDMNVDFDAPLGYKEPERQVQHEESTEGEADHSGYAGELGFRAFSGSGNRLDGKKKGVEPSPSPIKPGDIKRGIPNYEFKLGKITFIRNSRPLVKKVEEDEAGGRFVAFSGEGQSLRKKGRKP

In the next assay the target is endogenous p97 (human) (UniProt P55072).
Chain of endogenous p97 (human) (P55072 2-806 limits assumed): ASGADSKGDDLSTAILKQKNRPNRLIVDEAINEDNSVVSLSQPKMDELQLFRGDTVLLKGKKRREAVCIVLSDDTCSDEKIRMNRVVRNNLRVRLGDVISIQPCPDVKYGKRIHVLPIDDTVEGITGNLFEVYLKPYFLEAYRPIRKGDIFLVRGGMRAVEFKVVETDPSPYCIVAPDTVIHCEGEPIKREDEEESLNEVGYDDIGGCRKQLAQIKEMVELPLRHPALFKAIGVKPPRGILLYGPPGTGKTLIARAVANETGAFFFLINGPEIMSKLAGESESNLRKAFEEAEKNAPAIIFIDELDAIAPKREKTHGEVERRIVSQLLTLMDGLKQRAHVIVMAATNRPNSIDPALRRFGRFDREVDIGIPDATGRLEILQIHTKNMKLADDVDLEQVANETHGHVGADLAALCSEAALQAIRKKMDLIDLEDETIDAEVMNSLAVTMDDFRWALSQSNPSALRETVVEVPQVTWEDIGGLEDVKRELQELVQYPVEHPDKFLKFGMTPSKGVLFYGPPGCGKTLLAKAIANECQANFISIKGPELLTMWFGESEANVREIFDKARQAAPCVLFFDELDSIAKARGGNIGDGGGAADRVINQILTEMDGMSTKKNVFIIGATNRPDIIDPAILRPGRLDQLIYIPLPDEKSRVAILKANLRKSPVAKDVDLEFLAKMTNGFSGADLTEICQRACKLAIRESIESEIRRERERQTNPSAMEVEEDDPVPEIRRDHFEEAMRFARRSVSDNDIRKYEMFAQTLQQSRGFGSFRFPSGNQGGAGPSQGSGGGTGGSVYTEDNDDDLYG

B1: Flag-NPL4 (protein, UniProt Q8TAT6 2-608, looked up, species assumed)
Nuclear protein localization protein 4 homolog: AESIIIRVQSPDGVKRITATKRETAATFLKKVAKEFGFQNNGFSVYINRNKTGEITASSNKSLNLLKIKHGDLLFLFPSSLAGPSSEMETSVPPGFKVFGAPNVVEDEIDQYLSKQDGKIYRSRDPQLCRHGPLGKCVHCVPLEPFDEDYLNHLEPPVKHMSFHAYIRKLTGGADKGKFVALENISCKIKSGCEGHLPWPNGICTKCQPSAITLNRQKYRHVDNIMFENHTVADRFLDFWRKTGNQHFGYLYGRYTEHKDIPLGIRAEVAAIYEPPQIGTQNSLELLEDPKAEVVDEIAAKLGLRKVGWIFTDLVSEDTRKGTVRYSRNKDTYFLSSEECITAGDFQNKHPNMCRLSPDGHFGSKFVTAVATGGPDNQVHFEGYQVSNQCMALVRDECLLPCKDAPELGYAKESSSEQYVPDVFYKDVDKFGNEITQLARPLPVEYLIIDITTTFPKDPVYTFSISQNPFPIENRDVLGETQDFHSLATYLSQNTSSVFLDTISDFHLLLFLVTNEVMPLQDSISLLLEAVRTRNEELAQTWKRSEQWATIEQLCSTVGGQLPGLHEYGAVGGSTHTATAAMWACQHCTFMNQPGTGHCEMCSLPRT
modifications: N-terminal Flag tag
Regarding B1, in the assay with VCIP135 (human), the sequence count came out at 2, the sequence coverage stood at 2.5% and the spectrum count worked out at 2. In the assay with endogenous UFD1 (human), the sequence count turned out to be 14, the sequence coverage was 37.9% and the spectrum count was 22. In the assay with endogenous p97 (human), this molecule yielded a sequence count of 79, a sequence coverage of 70.4% and a spectrum count of 414.
